Experimental data from patent publication US20240117334A1 (VERTEX PHARMACEUTICALS, published 2024).
Several values for one entry are separate records, joined by “and”; a condition that tells them apart may be missing. Equal values may be shown once.

T1: Plasma antichymotrypsin (ACT) (UniProt P01011 24-423)
T1 construct: also called plasma ACT
T1 sequence (looked up): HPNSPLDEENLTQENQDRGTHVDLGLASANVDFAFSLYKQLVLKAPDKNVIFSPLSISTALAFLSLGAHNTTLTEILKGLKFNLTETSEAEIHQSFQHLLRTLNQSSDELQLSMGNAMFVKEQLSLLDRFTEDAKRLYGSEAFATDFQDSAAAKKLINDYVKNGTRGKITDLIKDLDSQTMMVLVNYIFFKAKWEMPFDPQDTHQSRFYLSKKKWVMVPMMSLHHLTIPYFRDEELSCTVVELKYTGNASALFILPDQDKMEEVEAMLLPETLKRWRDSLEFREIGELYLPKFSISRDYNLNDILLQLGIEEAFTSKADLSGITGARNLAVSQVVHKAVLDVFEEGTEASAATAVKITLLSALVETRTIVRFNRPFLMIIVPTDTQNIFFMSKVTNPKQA


Tests used:
Human Factor B = Human Factor B (human, UniProt P00751 26-764); test: cell-based or functional assay
[1] = target: T1, Plasma antichymotrypsin (ACT); test: serpin inhibition of the protease

Human Factor B, sequence (P00751 26-764 limits assumed): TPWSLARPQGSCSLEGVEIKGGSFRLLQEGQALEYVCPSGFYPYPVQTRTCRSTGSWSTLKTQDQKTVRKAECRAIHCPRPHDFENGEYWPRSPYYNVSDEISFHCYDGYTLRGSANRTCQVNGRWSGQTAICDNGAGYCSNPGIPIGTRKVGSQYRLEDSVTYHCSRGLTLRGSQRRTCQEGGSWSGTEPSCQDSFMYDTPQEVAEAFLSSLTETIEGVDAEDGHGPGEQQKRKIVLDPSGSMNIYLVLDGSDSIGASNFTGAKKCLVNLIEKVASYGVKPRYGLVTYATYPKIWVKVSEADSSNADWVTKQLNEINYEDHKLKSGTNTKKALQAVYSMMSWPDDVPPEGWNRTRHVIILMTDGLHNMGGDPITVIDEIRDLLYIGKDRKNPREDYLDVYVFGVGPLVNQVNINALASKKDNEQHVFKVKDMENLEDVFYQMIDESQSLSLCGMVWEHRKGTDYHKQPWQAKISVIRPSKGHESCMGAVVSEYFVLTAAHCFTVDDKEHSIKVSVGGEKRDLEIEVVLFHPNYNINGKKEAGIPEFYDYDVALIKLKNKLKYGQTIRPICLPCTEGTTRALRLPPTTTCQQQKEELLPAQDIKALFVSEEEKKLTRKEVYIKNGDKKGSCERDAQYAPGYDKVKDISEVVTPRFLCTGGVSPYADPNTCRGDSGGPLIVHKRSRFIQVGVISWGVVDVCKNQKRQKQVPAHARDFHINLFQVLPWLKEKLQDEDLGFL

kapp [1]	fB Cleavage EC50 (Human Factor B)	Binder	further results
197 M⁻¹ s⁻¹		chymase C22S/K40L/F41K/L99N/F173Y/S218L/A226R (enzyme) IIGGTESKPHSRPYMAYLEIVTSNGPSLKCGGFLIRRNFVLTAAHCAGRSITVTLGAHNITEEEDTWQKLEVIKQFRHPKYNTSTNHHDIMLLKLKEKASLTLAVGTLPFPSQFNFVPPGRMCRVAGWGRTGVLKPGSDTLQEVKLRLMDPQACSHYRDFDHNLQLCVGNPRKTKSAFKGDSGGPLLCAGVAQGIVSYGRLDAKPPRVFTRISHYRPWINQILQAN	fB Cleavage, 80% plasma EC50 (Human Factor B): 14 µM
	1.74 µM	chymase C22S/F41I/L99W/G151L/F173K/R217S/A226R (enzyme) IIGGTESKPHSRPYMAYLEIVTSNGPSKICGGFLIRRNFVLTAAHCAGRSITVTLGAHNITEEEDTWQKLEVIKQFRHPKYNTSTWHHDIMLLKLKEKASLTLAVGTLPFPSQFNFVPPGRMCRVAGWGRTGVLKPLSDTLQEVKLRLMDPQACSHKRDFDHNLQLCVGNPRKTKSAFKGDSGGPLLCAGVAQGIVSYGSSDAKPPRVFTRISHYRPWINQILQAN	
	7.77 µM	chymase F41V/L99H/G151V/F173Y/Y215K/R217G/A226R (enzyme) IIGGTECKPHSRPYMAYLEIVTSNGPSKVCGGFLIRRNFVLTAAHCAGRSITVTLGAHNITEEEDTWQKLEVIKQFRHPKYNTSTHHHDIMLLKLKEKASLTLAVGTLPFPSQFNFVPPGRMCRVAGWGRTGVLKPVSDTLQEVKLRLMDPQACSHYRDFDHNLQLCVGNPRKTKSAFKGDSGGPLLCAGVAQGIVSKGGSDAKPPRVFTRISHYRPWINQILQAN	
	8.06 µM	chymase C22S/F41V/L99H/G151R/F173L/Y215R/R217T/A226R (enzyme) IIGGTESKPHSRPYMAYLEIVTSNGPSKVCGGFLIRRNFVLTAAHCAGRSITVTLGAHNITEEEDTWQKLEVIKQFRHPKYNTSTHHHDIMLLKLKEKASLTLAVGTLPFPSQFNFVPPGRMCRVAGWGRTGVLKPRSDTLQEVKLRLMDPQACSHLRDFDHNLQLCVGNPRKTKSAFKGDSGGPLLCAGVAQGIVSRGTSDAKPPRVFTRISHYRPWINQILQAN	
	7.77 µM and 2.74 µM	chymase C22S/L99H/F173L/K192R/Y215H/R217T/S218V/A226R (enzyme) IIGGTESKPHSRPYMAYLEIVTSNGPSKFCGGFLIRRNFVLTAAHCAGRSITVTLGAHNITEEEDTWQKLEVIKQFRHPKYNTSTHHHDIMLLKLKEKASLTLAVGTLPFPSQFNFVPPGRMCRVAGWGRTGVLKPGSDTLQEVKLRLMDPQACSHLRDFDHNLQLCVGNPRKTKSAFRGDSGGPLLCAGVAQGIVSHGTVDAKPPRVFTRISHYRPWINQILQAN	
	3.45 µM	chymase C22S/F41R/L99Y/G151T/F173K/R217S/A226R (enzyme) IIGGTESKPHSRPYMAYLEIVTSNGPSKRCGGFLIRRNFVLTAAHCAGRSITVTLGAHNITEEEDTWQKLEVIKQFRHPKYNTSTYHHDIMLLKLKEKASLTLAVGTLPFPSQFNFVPPGRMCRVAGWGRTGVLKPTSDTLQEVKLRLMDPQACSHKRDFDHNLQLCVGNPRKTKSAFKGDSGGPLLCAGVAQGIVSYGSSDAKPPRVFTRISHYRPWINQILQAN	
	1.69 µM	chymase C22S/F41R/L99H/G151T/F173Y/Y215K/R217M/A226R (enzyme) IIGGTESKPHSRPYMAYLEIVTSNGPSKRCGGFLIRRNFVLTAAHCAGRSITVTLGAHNITEEEDTWQKLEVIKQFRHPKYNTSTHHHDIMLLKLKEKASLTLAVGTLPFPSQFNFVPPGRMCRVAGWGRTGVLKPTSDTLQEVKLRLMDPQACSHYRDFDHNLQLCVGNPRKTKSAFKGDSGGPLLCAGVAQGIVSKGMSDAKPPRVFTRISHYRPWINQILQAN	
	4.33 µM	chymase C22S/F41R/L99G/G151T/F173Y/Y215R/R217M/A226R (enzyme) IIGGTESKPHSRPYMAYLEIVTSNGPSKRCGGFLIRRNFVLTAAHCAGRSITVTLGAHNITEEEDTWQKLEVIKQFRHPKYNTSTGHHDIMLLKLKEKASLTLAVGTLPFPSQFNFVPPGRMCRVAGWGRTGVLKPTSDTLQEVKLRLMDPQACSHYRDFDHNLQLCVGNPRKTKSAFKGDSGGPLLCAGVAQGIVSRGMSDAKPPRVFTRISHYRPWINQILQAN	
	1.94 µM	chymase C22S/F41V/L99W/G151L/F173K/R217S/A226R (enzyme) IIGGTESKPHSRPYMAYLEIVTSNGPSKVCGGFLIRRNFVLTAAHCAGRSITVTLGAHNITEEEDTWQKLEVIKQFRHPKYNTSTWHHDIMLLKLKEKASLTLAVGTLPFPSQFNFVPPGRMCRVAGWGRTGVLKPLSDTLQEVKLRLMDPQACSHKRDFDHNLQLCVGNPRKTKSAFKGDSGGPLLCAGVAQGIVSYGSSDAKPPRVFTRISHYRPWINQILQAN	
	5.62 µM	chymase C22S/L99H/F173I/K192R/Y215K/R217T/S218I/A226R (enzyme) IIGGTESKPHSRPYMAYLEIVTSNGPSKFCGGFLIRRNFVLTAAHCAGRSITVTLGAHNITEEEDTWQKLEVIKQFRHPKYNTSTHHHDIMLLKLKEKASLTLAVGTLPFPSQFNFVPPGRMCRVAGWGRTGVLKPGSDTLQEVKLRLMDPQACSHIRDFDHNLQLCVGNPRKTKSAFRGDSGGPLLCAGVAQGIVSKGTIDAKPPRVFTRISHYRPWINQILQAN	
	1.02 µM	chymase C22S/L99Y/F173Y/K192R/S218L/A226R (enzyme) IIGGTESKPHSRPYMAYLEIVTSNGPSKFCGGFLIRRNFVLTAAHCAGRSITVTLGAHNITEEEDTWQKLEVIKQFRHPKYNTSTYHHDIMLLKLKEKASLTLAVGTLPFPSQFNFVPPGRMCRVAGWGRTGVLKPGSDTLQEVKLRLMDPQACSHYRDFDHNLQLCVGNPRKTKSAFRGDSGGPLLCAGVAQGIVSYGRLDAKPPRVFTRISHYRPWINQILQAN	
	6.37 µM	chymase C22S/K192R/A226R (enzyme) IIGGTESKPHSRPYMAYLEIVTSNGPSKFCGGFLIRRNFVLTAAHCAGRSITVTLGAHNITEEEDTWQKLEVIKQFRHPKYNTSTLHHDIMLLKLKEKASLTLAVGTLPFPSQFNFVPPGRMCRVAGWGRTGVLKPGSDTLQEVKLRLMDPQACSHFRDFDHNLQLCVGNPRKTKSAFRGDSGGPLLCAGVAQGIVSYGRSDAKPPRVFTRISHYRPWINQILQAN	
	1.15 µM	chymase C22S/L99H/F173Y/K192R/S218L/A226R (enzyme) IIGGTESKPHSRPYMAYLEIVTSNGPSKFCGGFLIRRNFVLTAAHCAGRSITVTLGAHNITEEEDTWQKLEVIKQFRHPKYNTSTHHHDIMLLKLKEKASLTLAVGTLPFPSQFNFVPPGRMCRVAGWGRTGVLKPGSDTLQEVKLRLMDPQACSHYRDFDHNLQLCVGNPRKTKSAFRGDSGGPLLCAGVAQGIVSYGRLDAKPPRVFTRISHYRPWINQILQAN	
	3.65 µM	chymase C22S/F41V/L99F/G151R/F173K/R217S/A226R (enzyme) IIGGTESKPHSRPYMAYLEIVTSNGPSKVCGGFLIRRNFVLTAAHCAGRSITVTLGAHNITEEEDTWQKLEVIKQFRHPKYNTSTFHHDIMLLKLKEKASLTLAVGTLPFPSQFNFVPPGRMCRVAGWGRTGVLKPRSDTLQEVKLRLMDPQACSHKRDFDHNLQLCVGNPRKTKSAFKGDSGGPLLCAGVAQGIVSYGSSDAKPPRVFTRISHYRPWINQILQAN	
1040 M⁻¹ s⁻¹	5.21 µM	chymase C22S/A226R (enzyme) IIGGTESKPHSRPYMAYLEIVTSNGPSKFCGGFLIRRNFVLTAAHCAGRSITVTLGAHNITEEEDTWQKLEVIKQFRHPKYNTSTLHHDIMLLKLKEKASLTLAVGTLPFPSQFNFVPPGRMCRVAGWGRTGVLKPGSDTLQEVKLRLMDPQACSHFRDFDHNLQLCVGNPRKTKSAFKGDSGGPLLCAGVAQGIVSYGRSDAKPPRVFTRISHYRPWINQILQAN	
428 M⁻¹ s⁻¹		chymase C22S/F173Y/D175N/A226R (enzyme, also called MS No. 18) IIGGTESKPHSRPYMAYLEIVTSNGPSKFCGGFLIRRNFVLTAAHCAGRSITVTLGAHNITEEEDTWQKLEVIKQFRHPKYNTSTLHHDIMLLKLKEKASLTLAVGTLPFPSQFNFVPPGRMCRVAGWGRTGVLKPGSDTLQEVKLRLMDPQACSHYRNFDHNLQLCVGNPRKTKSAFKGDSGGPLLCAGVAQGIVSYGRSDAKPPRVFTRISHYRPWINQILQAN	fB Cleavage, 64% A2M-depl plasma EC50 (Human Factor B): 1.65 µM; fB Cleavage, 80% plasma EC50 (Human Factor B): 11.2 µM
40 M⁻¹ s⁻¹	0.139 µM	chymase C22S/K40L/F41H/L99N/F173Y/D175N/S218L/A226R (enzyme, also called MS No. 16) IIGGTESKPHSRPYMAYLEIVTSNGPSLHCGGFLIRRNFVLTAAHCAGRSITVTLGAHNITEEEDTWQKLEVIKQFRHPKYNTSTNHHDIMLLKLKEKASLTLAVGTLPFPSQFNFVPPGRMCRVAGWGRTGVLKPGSDTLQEVKLRLMDPQACSHYRNFDHNLQLCVGNPRKTKSAFKGDSGGPLLCAGVAQGIVSYGRLDAKPPRVFTRISHYRPWINQILQAN	fB Cleavage, 80% plasma EC50 (Human Factor B): 5.07 µM
269 M⁻¹ s⁻¹		chymase C22S/P38Q/V138I/V183I/L199V/A226R/F228V (enzyme) IIGGTESKPHSRPYMAYLEIVTSNGQSKFCGGFLIRRNFVLTAAHCAGRSITVTLGAHNITEEEDTWQKLEVIKQFRHPKYNTSTLHHDIMLLKLKEKASLTLAVGTLPFPSQFNFVPPGRMCRIAGWGRTGVLKPGSDTLQEVKLRLMDPQACSHFRDFDHNLQLCIGNPRKTKSAFKGDSGGPVLCAGVAQGIVSYGRSDAKPPRVVTRISHYRPWINQILQAN	
1600 M⁻¹ s⁻¹	0.407 µM	chymase C22S/A190S/A226R (enzyme) IIGGTESKPHSRPYMAYLEIVTSNGPSKFCGGFLIRRNFVLTAAHCAGRSITVTLGAHNITEEEDTWQKLEVIKQFRHPKYNTSTLHHDIMLLKLKEKASLTLAVGTLPFPSQFNFVPPGRMCRVAGWGRTGVLKPGSDTLQEVKLRLMDPQACSHFRDFDHNLQLCVGNPRKTKSSFKGDSGGPLLCAGVAQGIVSYGRSDAKPPRVFTRISHYRPWINQILQAN	
31200 M⁻¹ s⁻¹	0.265 µM	chymase C22S (enzyme, For all chymase variants: mutation names are in chymotrypsin numbering) IIGGTESKPHSRPYMAYLEIVTSNGPSKFCGGFLIRRNFVLTAAHCAGRSITVTLGAHNITEEEDTWQKLEVIKQFRHPKYNTSTLHHDIMLLKLKEKASLTLAVGTLPFPSQFNFVPPGRMCRVAGWGRTGVLKPGSDTLQEVKLRLMDPQACSHFRDFDHNLQLCVGNPRKTKSAFKGDSGGPLLCAGVAQGIVSYGRSDAKPPAVFTRISHYRPWINQILQAN	fB Cleavage, 64% A2M-depl plasma EC50 (Human Factor B): 1.52 µM; fB Cleavage, 64% plasma EC50 (Human Factor B): 7.88 µM; fB Cleavage, 80% plasma EC50 (Human Factor B): 10.2 µM
